{"source": "paper PMC10524804", "system": "CpxR-R195H (Klebsiella pneumoniae HS11286 (ST11)?)", "assay": "ITC", "details": "EMSA: Beyotime binding buffer (poly(dI-dC), DTT, glycerol, EDTA, NaCl, MgCl2, Tris), room temp, 2 pmol probe; footprinting: 50 mM Tris-HCl pH 8.0, 100 mM KCl …", "data": [{"substance": "PblaKPC (Tn1721, ST11), unlabeled", "values": [{"measurement": "binding signal (fold lower affinity than wild type)", "value": 100}]}]}
